# Results from US20260234223A1 (LEYDEN LABORATORIES B V, published 2026).
# Biological target: SARS-CoV-2 Omicron BA.4 Spike (on pseudovirions) (SARS-CoV-2 Omicron BA.4)
# Test: cell-based or functional assay
binder,measurement,value
"COV30-14 (antibody, V domains shown, also called the antibody according to the invention; the antibody according to invention) VH: QVQLVQSGAEVKKPGASVKVSCQTSGYTFTSYYMHWVRQAPGQGLEWMGLITPSGDDTYYAQRFQGRVTMTRDTSTSPTYMELSSLTSEDTAVYYCAKMSRAGGFDVWGQGTLVTVSS VL: EVVLTQSPGTLSLSPGERATLSCRASQSITGRYLAWYQQKPGQAPRLLMYGESSRVTGIPDRFSGGGSGTDFTLTISRLEPEDFAVYYCQHFASSPPTYTFGQGTKLEIR",Pseudovirion neutralization IC50 (geometric mean),7.6 µg/mL
